Source: paper PMC3328465

Columns and labels:
CT-SBP2L (human) = test: EMSA; details: EMSA: 20 fmol RNA in 20 uL, 1x PBS, glycerol, 250 ug yeast tRNA, 10 mM DTT, 5 ug soybean trypsin inhibitor, 37 C 30 min, 4% native PAGE; pH not stated
CT-SBP2 (human) = test: EMSA; details: EMSA: 20 fmol RNA in 20 uL, 1x PBS, glycerol, 250 ug yeast tRNA, 10 mM DTT, 5 ug soybean trypsin inhibitor, 37 C 30 min, 4% native PAGE; pH not stated

Substance	Kd (CT-SBP2L (human)) [µM]	Kd (CT-SBP2 (human)) [µM]
DIO1 SECIS	0.0199	0.0027
DIO2 SECIS	0.0713	0.0068
DIO3 SECIS	0.0557	0.0054
GPX1 SECIS	0.112	0.0063
GPX2 SECIS	0.135	0.0109
GPX3 SECIS	0.135	0.025
GPX4 SECIS	0.0582	0.0132
GPX6 SECIS	0.313	0.15
SEP15 SECIS	0.0529	0.005
SPS2 SECIS	0.129	0.0075
SelH SECIS	0.102	0.0047
SelI SECIS	0.0592	0.0122
SelK SECIS	0.0329	0.0036
SelM SECIS	0.0234	0.003
SelN SECIS	0.089	0.0105
SelO SECIS	0.0587	0.007
SelP SECIS 1	0.0592	0.0034
SelP SECIS 2	0.0276	0.0016
SelR SECIS	0.196	0.0097
SelS SECIS	0.093	0.0259
SelT SECIS	0.102	0.004
SelV SECIS	0.0124	0.0067
SelW SECIS	0.0877	0.004
TR1 SECIS	0.0206	0.0058
TR2 SECIS	0.0544	0.0116
TR3 SECIS	0.115	0.0042
